Measured values reported in the Human Domainome abundance scans (Beltran et al. 2025).

B1: Nucleolar transcription factor 1, residues 408 to 469; numbered along this chain, P17480 (parent)
chain: KRPVSAMFIFSEEKRRQLQEERPELSESELTRLLARMWNDLSEKKKAKYKAREAALKAQSER

Variants of: B1
Experiment: abundance fitness (aPCA) (normalised: wild type 0, dead -1); higher = more abundant; growth selection in yeast, the domain comes from the species named
Conditions: Homo sapiens

Abundance fitness: each site, then its substitutions
R15: V -0.29, G -0.153, A -0.201, C -0.218, K 0.035, L -0.168, M -0.19, D -1.2, S -0.121, T -0.23, F -0.111, W -0.295, I -0.209, P -1.28, Q -0.267, N -0.427, Y -0.243, H -0.411, E -0.279
E21: F -0.238, P -1.1, A -0.099, R -0.086, M -0.073, Q -0.006, C -0.076, V -0.1, H -0.163, L -0.097, K -0.065, D -0.126, I -0.111, W -0.189, T 0.02, Y -0.276
L25: R -0.325, A -0.106, T -0.423, K -0.385, Q -0.477, E -0.501, N -0.646, G -0.946, D -0.633, C -0.134, M -0.011, V -0.155, Y -0.173
I9: G -0.43, K -0.258, Y -0.181, C -0.074, H -0.518, E -0.38, L -0.027, A -0.095, T -0.217, V -0.131, P -0.365, Q -0.202, N -0.223, F -0.113, D -0.484, S -0.191, R -0.172
F10: W -0.075, H -0.258, Y 0.039, G -0.683, L -0.731, R -0.88, E -0.875, M -0.522, S -0.648, A -0.829, N -0.562, C -1.04, I -0.948, K -0.857, V -1.09, P -0.677, Q -0.82, T -0.751, D -1.01
L18: F -0.085, A -0.167, H -0.639, R -0.965, T -0.092, D -1.5, M -0.108, S -0.632, N -0.98, E -0.664, C -0.127, W -0.338, P -1.37, Y -0.063, G -1, Q -0.531, V -0.021
R16: N -0.154, Y -0.072, I -0.11, S -0.001, Q -0.041, W -0.106, L -0.058, E -0.106, T -0.078, G -0.037, D -0.248, K -0.073, H -0.071, V -0.044, C -0.012, A -0.027, M -0.024, F -0.147
E12: F -0.315, G -0.175, M -0.089, D -0.092, H -0.169, S -0.028, P -0.738, I -0.201, W -0.253, Q -0.13, N -0.048, V -0.163, K -0.059, Y -0.251, L -0.182, C -0.19, T -0.069
S11: P -1.16, F -0.029, G -0.028, T -0.013, A -0.07, Q -0.027, H -0.146, W -0.08, V 0.024, Y 0.011, M 0.093, L -0.049, E -0.023, R -0.13, C -0.102
S26: I -0.29, Q -0.104, P -0.16, E -0.109, L -0.231, K -0.476, W -0.944, M -0.052, F -0.592, N -0.1, C -0.263, R -0.157, D -0.157, Y -0.536, H -0.182, T -0.144, A -0.115
E24: C -0.225, V -0.401, G -0.069, P -0.451, M -0.148, S -0.147, T -0.123, F -0.144, I -0.544, A -0.114, L -0.209, N -0.199, R -0.225, W -0.083, H -0.074, Q -0.151, D 0.03
Q17: C -0.211, W -0.106, S -0.016, I -0.201, R -0.114, M -0.028, G -0.038, N -0.078, E 0.002, L -0.034, D -0.112, H -0.091, Y -0.145, A -0.081, T -0.026, K -0.094, V -0.018
P23: N -0.319, R -0.252, I -0.187, E -0.357, W -0.588, H -0.267, G -0.254, V -0.244, Y -0.402, F -0.402, D -0.431, Q -0.275, T -0.218, K -0.174, M -0.291, A -0.256, S -0.21
R22: W -0.132, Y -0.068, C -0.081, N -0.002, I -0.286, K -0.089, P -1.06, T -0.229, E -0.194, Q -0.058, H 0.06, S -0.119, D -0.139, F -0.057, V -0.29
E13: P -0.663, Y -0.29, H -0.22, K -0.106, R -0.207, N -0.344, T -0.167, V -0.187, C -0.175, F -0.359, A -0.205, W -0.355, G -0.22, D -0.04, L -0.277, I -0.177, M -0.124
M7: W -0.178, Y -0.012, V -0.058
E20: W -0.152, D 0.031, K 0.019, V -0.055, F -0.018, R -0.012, T -0.067, Y -0.099, I -0.114, C -0.025, G -0.064, Q -0.016, A -0.092, L -0.1, S -0.016, M -0.099, P -0.295, H -0.09
K14: W -0.167, D -0.729, Q -0.064, C -0.319, N -0.086, P -0.956, E -0.229, M -0.044, Y -0.038, I -0.085, H 0.062, G -0.238, F -0.034, V -0.07, R -0.034, A -0.057
Q19: Y -0.095, E -0.067, I 0.009, L -0.017, G -0.076, H -0.099, F -0.26, N -0.129, T -0.128, C -0.083, M 0.012, K 0.007, R -0.016, S -0.02, A -0.036, W -0.159, V -0.025
E27: D 0.037, C -0.165, H -0.4, N -0.33, Q -0.121, A -0.143, K -0.148, S -0.178, F -0.212, P -0.067, G -0.09, M -0.358
F8: T -0.066, G 0.029, M -0.003, P -0.235, A -0.092, E 0.02, W -0.03, N 0.024, C -0.069, S -0.039, I -0.02, R 0.005, D -0.023, K -0.004, V -0.027, Q -0.236, Y -0.001
